Test results: patent US11653679B2, “High-purity steviol glycosides” (PureCircle Sdn Bhd, priority 2014, dated 2023)

Columns and labels:
Format in all cases: biochemical
[1] = Catalytic test Rebaudioside A to Rebaudioside D with in-vitro expressed UDP-glucosyltransferases (Examples 20, 21), HPLC; settings: for Steviol glycoside conversion in reaction mixture, Reb A / Steviol glycoside conversion in reaction mixture, Reb D / Steviol glycoside conversion in reaction mixture, Reb UNK (later identified as reb D2): 0.5 mM Rebaudioside A, 30° C., HPLC; for Conversion RebA to RebD: in-vitro expressed enzyme
Method: The prepared expression medium mix was added to the plasmid solution and the solution was allowed to incubate at 30° C. for 3 hours while mixing the mixture every 45 minutes. 5 μL of the mixture was frozen whereas the remainder was used for the catalytic test for the conversion of Rebaudioside A to Rebaudioside D.
430 μL of a reaction mixture containing 0.5 mM Rebaudioside A, 3 mM MgCl2, 50 mM phosphate buffer (pH7.2) and 2.5 mM UDP-glucose was added to a 1.5 mL sterile microtube. 52 μl of the enzyme expression medium was added and the resulting mixture was allowed to react at 30° C. for 24 hours. 125 μL samples were taken after 2 hours, 16 hours and 24 hours and added to a 115 μL of 60% methanol and 10 μL of 2 N H2SO4. The quenched sample was centrifuged at 18,000 g for 2 minutes at RT. 200 μL was transferred to an HPLC vial and analyzed.
The HPLC assay was performed as follows:
430 μL of a reaction mixture containing 0.5 mM Rebaudioside A, 3 mM MgCl2, 50 mM phosphate buffer (pH7.2) and 2.5 mM UDP-glucose was added to a 1.5 mL sterile microtube. 52 μL of the enzyme expression medium was added and the resulting mixture was allowed to react at 30° C. for 24 hours. 125 μL samples were taken after 2 hours, 16 hours and 24 hours and added to a 115 μL of 60% methanol and 10 μL of 2 N H2SO4. The quenched sample was centrifuged at 18,000 g for 2 minutes at RT. 200 μL was transferred to HPLC vial and analyzed.
(§1) The HPLC assay was performed as described in EXAMPLE 20.

[2] = Activity of in-vivo produced enzymes for transformation of Rebaudioside A (Example 22); settings: for Conversion after 45 hrs.: 0.5 mM, in-vivo produced enzyme lysate; for Reb D selectivity: after 45 hrs.
Method: Activity tests were performed at 5 mL scale with 1,000 μL of thawed lysate for the transformation of Rebaudioside A using 0.5 mM of substrate, 2.5 mM of UDP-Glucose and 3 mM MgCl2 in 50 mM Sodium Phosphate buffer at pH 7.2. Samples were taken and analyzed by HPLC.
as §1

[3] = Transformation of Stevioside to Rebaudioside A with UGT76G1 lysate (Examples 4, 13), HPLC; settings: per mL of lysate; 1 U transforms 1 μmol in 1 hour at 30° C. and pH 7.2
Method: The total volume of the reaction was 5.0 mL with the following composition: 50 mM sodium phosphate buffer pH 7.2, 3 mM MgCl2, 2.5 mM UDP-glucose, 0.5 mM Stevioside and 500 μl, of UGT76G1 thawed lysate. The reactions were run at 30° C. on an orbitary shaker at 135 rpm. For each sample, 460 μL of the reaction mixture was quenched with 40 μL of 2N H2SO4 and 420 μL of methanol/water (6/4). The samples were immediately centrifuged and kept at 10° C. before analysis by HPLC (CAD).
(§2) Activity tests were performed on a 5 mL scale with 500 μL of thawed lysate for the transformation of Stevioside to Rebaudioside A and Rebaudioside D to Rebaudioside M using 0.5 mM of substrate, 2.5 mM of UDP-Glucose and 3 mM MgCl2 in 50 mM Sodium Phosphate buffer at pH 7.2. Samples were taken and analyzed by HPLC.

[4] = Transformation of Rebaudioside D to Rebaudioside M with UGT76G1 (Examples 6, 13), HPLC; settings: per mL of lysate; 1 U transforms 1 μmol in 1 hour at 30° C. and pH 7.2
Method: The total volume of the reaction was 2 mL with the following composition: 50 mM sodium phosphate buffer pH 7.2, 3 mM MgCl2, 3.8 mM UDP-glucose, 0.5 mM Rebaudioside D and 180 μL of in-vitro produced UGT76G1. The reactions were run at 30° C. on an orbitary shaker at 135 rpm. For each sample, 400 μL of reaction mixture was quenched with 40 μL of 2N H2SO4 and 360 μL of 60% MeOH. After centrifugation, the supernatant was analyzed by HPLC (CAD).
as §2

Molecule | Steviol glycoside conversion in reaction mixture, Reb A [1] | Steviol glycoside conversion in reaction mixture, Reb D [1] | Steviol glycoside conversion in reaction mixture, Reb UNK (later identified as reb D2) [1] | Conversion RebA to RebD [1] | Conversion after 45 hrs. [2] | Reb D selectivity [2] | Transformation activity Stevioside to Rebaudioside A [3] | Transformation activity Rebaudioside D to Rebaudioside M [4]
gi222619587_EEE55719.1: hypothetical protein OsJ_04191 [Oryza sativa Japonica Group], SEQ ID NO:6 (protein, listed as Oryza sativa) MHVVMLPWLAFGHILPFAEFAKRVARQGHRVTLFSTPRNTRRLIDVPPSLAGRIRVVDIPLPRVEHLPEHAEATIDLPSNDLRPYLRRAYDEAFSRELSRLLQETGPSRPDWVLADYAAYWAPAAASRHGVPCAFLSLFGAAALCFFGPAETLQGRGPYAKTEPAHLTAVPEYVPFPTTVAFRGNEARELFKPSLIPDESGVSESYRFSQSIEGCQLVAVRSNQEFEPEWLELLGELYQKPVIPIGMFPPPPPQDVAGHEETLRWLDRQEPNSVVYAAFGSEVKLTAEQLQRIALGLEASELPFIWAFRAPPDAGDGDGLPGGFKERVNGRGVVCRGWVPQVKFLAHASVGGFLTHAGWNSIAEGLANGVRLVLLPLMFEQGLNARQLAEKKVAVEVARDEDDGSFAANDIVDALRRVMVGEEGDEFGVKVKELAKVFGDDEVNDRYVRDFLKCLSEYKMQRQG | 92.8 % area | 0.14 % area | 7.0 % area | Active | 2.9% | Reb D Not detected | – | –
gi297795735_XP_002865752.1: UDP-glucoronosyl/UDP-glucosyl transferase family protein [Arabidopsis lyrata subsp. lyrata], SEQ ID NO:7 (protein, listed as Arabidopsis lyrata) MDDKKEEVMHIAMFPWLAMGHLLPFLRLSKLLAQKGHKISFISTPRNILRLPKLPSNLSSSITFVSFPLPSISGLPPSSESSMDVPYNKQQSLKAAFDLLQPPLTEFLRLSSPDWIIYDYASHWLPSIAKELGISKAFFSLFNAATLCFMGPSSSLIEESRSTPEDFTVVPPWVPFKSTIVFRYHEVSRYVEKTDEDVTGVSDSVRFGYTIDGSDAVFVRSCPEFEPEWFSLLQDLYRKPVFPIGFLPPVIEDDDDDTTWVRIKEWLDKQRVNSVVYVSLGTEASLRREELTELALGLEKSETPFFWVLRNEPQIPDGFEERVKGRGMVHVGWVPQVKILSHESVGGFLTHCGWNSVVEGIGFGKVPIFLPVLNEQGLNTRLLQGKGLGVEVLRDERDGSFGSDSVADSVRLVMIDDAGEEIREKVKLMKGLFGNMDENIRYVDELVGFMRNDESSQLKEEEEEDDCSDDQSSEVSSETDEKELNLDLKEEKRRISVYKSLSSEFDDYVANEKMG | 95.8 % area | 0.28 % area | 3.9 % area | Active | 0.0% | Reb D Not detected | – | –
Example 12: UGT76G1 lysate prepared by pCOLDIII plasmid and Origami2 (DE3) expression strain (protein, UniProt Q6VAB4 1-458, looked up, E. coli lysate, pCOLDIII, UGT76G1 lysate prepared by pCOLDIII plasmid and Origami2 (DE3) expression strain) UDP-glycosyltransferase 76G1: MENKTETTVRRRRRIILFPVPFQGHINPILQLANVLYSKGFSITIFHTNFNKPKTSNYPHFTFRFILDNDPQDERISNLPTHGPLAGMRIPIINEHGADELRRELELLMLASEEDEEVSCLITDALWYFAQSVADSLNLRRLVLMTSSLFNFHAHVSLPQFDELGYLDPDDKTRLEEQASGFPMLKVKDIKSAYSNWQILKEILGKMIKQTKASSGVIWNSFKELEESELETVIREIPAPSFLIPLPKHLTASSSSLLDHDRTVFQWLDQQPPSSVLYVSFGSTSEVDEKDFLEIARGLVDSKQSFLWVVRPGFVKGSTWVEPLPDGFLGERGRIVKWVPQQEVLAHGAIGAFWTHSGWNSTLESVCEGVPMIFSDFGLDQPLNARYMSDVLKVGVYLENGWERGEIANAIRRVMVDEEGEYIRQNARVLKQKADVSLMKGGSSYESLESLVSYISSL | – | – | – | – | – | – | 37 U mL^−1 | 0.20 U mL^−1
Example 9: UGT76G1 lysate prepared by pMAL plasmid and BL21 expression strain (protein, UniProt Q6VAB4 1-458, looked up, E. coli lysate, pMAL vector, UGT76G1 lysate prepared by pMAL plasmid and BL21 expression strain) UDP-glycosyltransferase 76G1: MENKTETTVRRRRRIILFPVPFQGHINPILQLANVLYSKGFSITIFHTNFNKPKTSNYPHFTFRFILDNDPQDERISNLPTHGPLAGMRIPIINEHGADELRRELELLMLASEEDEEVSCLITDALWYFAQSVADSLNLRRLVLMTSSLFNFHAHVSLPQFDELGYLDPDDKTRLEEQASGFPMLKVKDIKSAYSNWQILKEILGKMIKQTKASSGVIWNSFKELEESELETVIREIPAPSFLIPLPKHLTASSSSLLDHDRTVFQWLDQQPPSSVLYVSFGSTSEVDEKDFLEIARGLVDSKQSFLWVVRPGFVKGSTWVEPLPDGFLGERGRIVKWVPQQEVLAHGAIGAFWTHSGWNSTLESVCEGVPMIFSDFGLDQPLNARYMSDVLKVGVYLENGWERGEIANAIRRVMVDEEGEYIRQNARVLKQKADVSLMKGGSSYESLESLVSYISSL | – | – | – | – | – | – | 20 U mL^−1 | 0.15 U mL^−1
Example 7: UGT76G1 lysate prepared by pET30a+ plasmid and BL21 (DE3) expression strain (protein, UniProt Q6VAB4 1-458, looked up, E. coli lysate, pET30a+, UGT76G1 lysate prepared by pET30a+ plasmid and BL21 (DE3) expression strain) UDP-glycosyltransferase 76G1: MENKTETTVRRRRRIILFPVPFQGHINPILQLANVLYSKGFSITIFHTNFNKPKTSNYPHFTFRFILDNDPQDERISNLPTHGPLAGMRIPIINEHGADELRRELELLMLASEEDEEVSCLITDALWYFAQSVADSLNLRRLVLMTSSLFNFHAHVSLPQFDELGYLDPDDKTRLEEQASGFPMLKVKDIKSAYSNWQILKEILGKMIKQTKASSGVIWNSFKELEESELETVIREIPAPSFLIPLPKHLTASSSSLLDHDRTVFQWLDQQPPSSVLYVSFGSTSEVDEKDFLEIARGLVDSKQSFLWVVRPGFVKGSTWVEPLPDGFLGERGRIVKWVPQQEVLAHGAIGAFWTHSGWNSTLESVCEGVPMIFSDFGLDQPLNARYMSDVLKVGVYLENGWERGEIANAIRRVMVDEEGEYIRQNARVLKQKADVSLMKGGSSYESLESLVSYISSL | – | – | – | – | – | – | 29 U mL^−1 | 0.31 U mL^−1
Example 8: UGT76G1 lysate prepared by pET30a+ plasmid and Tuner (DE3) expression strain (protein, UniProt Q6VAB4 1-458, looked up, E. coli Tuner (DE3) lysate, pET30a+, UGT76G1 lysate prepared by pET30a+ plasmid and Tuner (DE3) expression strain) UDP-glycosyltransferase 76G1: MENKTETTVRRRRRIILFPVPFQGHINPILQLANVLYSKGFSITIFHTNFNKPKTSNYPHFTFRFILDNDPQDERISNLPTHGPLAGMRIPIINEHGADELRRELELLMLASEEDEEVSCLITDALWYFAQSVADSLNLRRLVLMTSSLFNFHAHVSLPQFDELGYLDPDDKTRLEEQASGFPMLKVKDIKSAYSNWQILKEILGKMIKQTKASSGVIWNSFKELEESELETVIREIPAPSFLIPLPKHLTASSSSLLDHDRTVFQWLDQQPPSSVLYVSFGSTSEVDEKDFLEIARGLVDSKQSFLWVVRPGFVKGSTWVEPLPDGFLGERGRIVKWVPQQEVLAHGAIGAFWTHSGWNSTLESVCEGVPMIFSDFGLDQPLNARYMSDVLKVGVYLENGWERGEIANAIRRVMVDEEGEYIRQNARVLKQKADVSLMKGGSSYESLESLVSYISSL | – | – | – | – | – | – | 33 U mL^−1 | 0.40 U mL^−1
